We go through four molecules from publication PMC12747932, “Crystal structures of Kif2A complexed with WDR5 reveal the structural plasticity of WIN-S7 sites” (Acta Biochimica et Biophysica Sinica, 2025).

Experiment in all cases: ITC; peptide (approximately 1 mM) titrated into protein (0.05 mM), 20°C, Buffer E (20 mM Tris-HCl, 200 mM NaCl, pH 7.5), single binding site model, duplicate
Common to all, as to details: both partners purified

The target of test [1] is human WDR5 seven tandem WD-40 domain (residues 24–334) (human, UniProt P61964 24-334).
Test [2] addresses WDR5 Y191F variant (residues 24–334) (human, UniProt P61964 24-334, Y191F).
Test [3] deals with human WDR5 seven tandem WD-40 domain (residues 24–334) (human, UniProt P61964 24-334). This is another data set of the same source.

B1: Kif2A 114–120 peptide (peptide)
peptide: GSARARP
notes: also called truncated Kif2A; source: synthetic peptide (GenScript)
B1: in test [1], the Kd (as a rule, the free concentration of one partner at which half of the binding sites on the other are occupied at equilibrium, for simple one-to-one binding) came to 6710 nM; the dH was -9.2 ± 0.11 kcal/mol; the stoichiometry N (usually the number of molecules, sites or subunits per partner or assembly) is 1.19.

B2: Kif2A 114–122 peptide (peptide)
peptide: GSARARPSQ
notes: also called wild-type Kif2A; source: synthetic peptide (GenScript)
B2: in test [2], the affinity, expressed as Kd, was 960 nM; the dH is -9 ± 0.08 kcal/mol; the “stoichiometry N” value is 1.27. Besides, in test [1], binding was put at a Kd of 780 nM, the dH is -15.7 ± 0.13 kcal/mol and the “stoichiometry N” value worked out at 0.91.

B3: Kif2A 114–122 (S121G) peptide (peptide)
peptide: GSARARPGQ
notes: also called Kif2A^S121G; source: synthetic peptide (GenScript)
With B3, in test [1], binding was characterised by a dissociation constant (Kd) of 3720 nM, the dH was -10.6 ± 0.14 kcal/mol and the “stoichiometry N” value is 0.94.
For the molecule GSARARPAQ [Kif2A S121A peptide], in test [3], the affinity, expressed as Kd, was 2160 nM; the dH is -13 ± 0.12 kcal/mol; the “stoichiometry N” value was found to be 0.97.
